In US20120178701A1 (PALATIN TECHNOLOGIES, published 2012):
Bridge positions count the residues as written; N and C are the ends. Square brackets hold non-standard residues; d marks the D form. * marks the point of attachment. Pro(4R-Bn) = O=C(O)[C@@H]1C[C@@H](Cc2ccccc2)CN1; Orn = NCCC[C@H](N)C(=O)O; Dab = NCC[C@H](N)C(=O)O; NHcPr = C1CC1N*

Each binder was assayed against T1, human recombinant melanocortin-4 receptor (human, UniProt P32245 1-332) (assay: competitive inhibition of Eu-NDP-α-MSH (TRF), hMC4-R HEK-293 membranes).
T1 construct: whole, on cells; cAMP assays used the whole cells; also called hMC4-R; MC4-R
Experimental: After incubation for 90 minutes at 37° C., the reaction was stopped by filtration over AcroWell 96-well filter plates (Pall Life Sciences). The filter plates were washed 4 times with 200 μL of ice-cold phosphate-buffered saline. DELFIA Enhancement solution (PerkinElmer Life Sciences) was added to each well. The plates were incubated on a shaker for 15 minutes and read at 340 nm excitation and 615 nm emission wavelengths. Each assay was conducted in duplicate and mean values were utilized. Ki values were determined by curve-fitting with Graph-Pad Prism® software using a one-site fixed-slope competition binding model.
9.1 Peptides of the following structures were synthesized by the general methods described above, and averaged MC4-R Ki values for peptides were determined as indicated. […] Ki values marked “ND” were not determined.

T1 sequence (P32245 whole entry): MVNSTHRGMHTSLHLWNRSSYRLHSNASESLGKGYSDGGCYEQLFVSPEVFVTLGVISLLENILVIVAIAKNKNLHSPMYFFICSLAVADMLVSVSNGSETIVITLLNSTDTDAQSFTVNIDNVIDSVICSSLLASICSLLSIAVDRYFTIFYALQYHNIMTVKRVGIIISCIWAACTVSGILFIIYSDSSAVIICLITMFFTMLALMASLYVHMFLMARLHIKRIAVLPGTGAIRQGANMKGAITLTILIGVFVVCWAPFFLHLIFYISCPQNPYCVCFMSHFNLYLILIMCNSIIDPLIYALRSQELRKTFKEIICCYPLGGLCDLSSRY

Binder | Ki [nM]
Ac-REH[dF]RW[Orn]-NHcPr (lactam 2-7, also called peptide No. 110) [Ac-Arg-cyclo(Glu-His-D-Phe-Arg-Trp-Orn)-NH-cyclopropyl] | 1
Ac-RD[Pro(4R-3-Cl-Bzl)][dF]RWK-NH2 (lactam 2-7, also called peptide No. 124) [Ac-Arg-cyclo(Asp-Pro(4R-3-Cl-Bzl)-D-Phe-Arg-Trp-Lys)-NH2] | 19
RXAFRWE (HELM PEPTIDE1{[ac].R.[Orn].A.[dF].R.W.E.[am]}$PEPTIDE1,PEPTIDE1,3:R3-8:R3$$$V2.0; SMILES CC(=O)N[C@@H](CCCNC(=N)N)C(=O)N[C@H]1CCCNC(=O)CC[C@@H](C(N)=O)NC(=O)[C@H](Cc2c[nH]c3ccccc23)NC(=O)[C@H](CCCNC(=N)N)NC(=O)[C@@H](Cc2ccccc2)NC(=O)[C@H](C)NC1=O, also called peptide No. 120) [Ac-Arg-cyclo(Orn-Ala-D-Phe-Arg-Trp-Glu)-NH2] | 19
Ac-[dK][Orn]H[dF]RWE-NH2 (lactam 2-7) [Ac-D-Lys-cyclo(Orn-His-D-Phe-Arg-Trp-Glu)-NH2] | 8
RDNFRWK (HELM PEPTIDE1{[ac].R.D.N.[dF].R.W.K.[am]}$PEPTIDE1,PEPTIDE1,3:R3-8:R3$$$V2.0; SMILES CC(=O)N[C@@H](CCCNC(=N)N)C(=O)N[C@H]1CC(=O)NCCCC[C@@H](C(N)=O)NC(=O)[C@H](Cc2c[nH]c3ccccc23)NC(=O)[C@H](CCCNC(=N)N)NC(=O)[C@@H](Cc2ccccc2)NC(=O)[C@H](CC(N)=O)NC1=O, also called peptide No. 29) [Ac-Arg-cyclo(Asp-Asn-D-Phe-Arg-Trp-Lys)-NH2] | 32
Ac-RDQ[dF]RWK-NH2 (lactam 2-7, any difference is only in the drawings; also called peptide No. 78) [Ac-Arg-cyclo(Asp-Gln-D-Phe-Arg-Trp-Lys)-NH2] | 86
RDYFRWK (HELM PEPTIDE1{[ac].R.D.Y.[dF].R.W.K.[am]}$PEPTIDE1,PEPTIDE1,3:R3-8:R3$$$V2.0; SMILES CC(=O)N[C@@H](CCCNC(=N)N)C(=O)N[C@H]1CC(=O)NCCCC[C@@H](C(N)=O)NC(=O)[C@H](Cc2c[nH]c3ccccc23)NC(=O)[C@H](CCCNC(=N)N)NC(=O)[C@@H](Cc2ccccc2)NC(=O)[C@H](Cc2ccc(O)cc2)NC1=O, also called peptide No. 11) [Ac-Arg-cyclo(Asp-Tyr-D-Phe-Arg-Trp-Lys)-NH2] | 43
RDWFRWK (HELM PEPTIDE1{[ac].R.D.W.[dF].R.W.K.[am]}$PEPTIDE1,PEPTIDE1,3:R3-8:R3$$$V2.0; SMILES CC(=O)N[C@@H](CCCNC(=N)N)C(=O)N[C@H]1CC(=O)NCCCC[C@@H](C(N)=O)NC(=O)[C@H](Cc2c[nH]c3ccccc23)NC(=O)[C@H](CCCNC(=N)N)NC(=O)[C@@H](Cc2ccccc2)NC(=O)[C@H](Cc2c[nH]c3ccccc23)NC1=O, also called peptide No. 36) [Ac-Arg-cyclo(Asp-Trp-D-Phe-Arg-Trp-Lys)-NH2] | 37
Ac-RDT[dF]RWK-NH2 (lactam 2-7, also called peptide No. 35) [Ac-Arg-cyclo(Asp-Thr-D-Phe-Arg-Trp-Lys)-NH2] | 140
Ac-[dR]DA[dF]RWK-NH2 (lactam 2-7, also called peptide No. 70) [Ac-D-Arg-cyclo(Asp-Ala-D-Phe-Arg-Trp-Lys)-NH2] | 46
RDKFKWK (HELM PEPTIDE1{[ac].R.D.K.[dF].K.W.K.[am]}$PEPTIDE1,PEPTIDE1,3:R3-8:R3$$$V2.0; SMILES CC(=O)N[C@@H](CCCNC(=N)N)C(=O)N[C@H]1CC(=O)NCCCC[C@@H](C(N)=O)NC(=O)[C@H](Cc2c[nH]c3ccccc23)NC(=O)[C@H](CCCCN)NC(=O)[C@@H](Cc2ccccc2)NC(=O)[C@H](CCCCN)NC1=O, also called peptide No. 7) [Ac-Arg-cyclo(Asp-Lys-D-Phe-Lys-Trp-Lys)-NH2] | 2960
RDHFKWK (HELM PEPTIDE1{[ac].R.D.H.[dF].K.W.K.[am]}$PEPTIDE1,PEPTIDE1,3:R3-8:R3$$$V2.0; SMILES CC(=O)N[C@@H](CCCNC(=N)N)C(=O)N[C@H]1CC(=O)NCCCC[C@@H](C(N)=O)NC(=O)[C@H](Cc2c[nH]c3ccccc23)NC(=O)[C@H](CCCCN)NC(=O)[C@@H](Cc2ccccc2)NC(=O)[C@H](Cc2c[nH]cn2)NC1=O, also called peptide No. 6) [Ac-Arg-cyclo(Asp-His-D-Phe-Lys-Trp-Lys)-NH2] | 533
Ac-[dR]D[Pro(4R-Bn)][dF]RWK-NH2 (lactam 2-7, also called peptide No. 72) [Ac-D-Arg-cyclo(Asp-Pro(4R-Bzl)-D-Phe-Arg-Trp-Lys)-NH2] | 2
Ac-RD[Pro(4R-Bn)][dF]RWK-NH2 (lactam 2-7, also called peptide No. 18) [Ac-Arg-cyclo(Asp-Pro(4R-Bzl)-D-Phe-Arg-Trp-Lys)-NH2] | 3
Ac-[dR][Orn]H[dF]RWE-NH2 (lactam 2-7, also called peptide No. 98) [Ac-D-Arg-cyclo(Orn-His-D-Phe-Arg-Trp-Glu)-NH2] | 4
Ac-REH[dF]RW[Orn]-NH2 (lactam 2-7, also called peptide No. 64) [Ac-Arg-cyclo(Glu-His-D-Phe-Arg-Trp-Orn)-NH2] | 1
REKFRWX (HELM PEPTIDE1{[ac].R.E.K.[dF].R.W.[Orn]}$PEPTIDE1,PEPTIDE1,3:R3-8:R3$$$V2.0; SMILES CC(=O)N[C@@H](CCCNC(=N)N)C(=O)N[C@H]1CCC(=O)NCCC[C@@H](C(=O)O)NC(=O)[C@H](Cc2c[nH]c3ccccc23)NC(=O)[C@H](CCCNC(=N)N)NC(=O)[C@@H](Cc2ccccc2)NC(=O)[C@H](CCCCN)NC1=O, also called peptide No. 89) [Ac-Arg-cyclo(Glu-Lys-D-Phe-Arg-Trp-Orn)-OH] | 113
Ac-RKH[dF]RWD-NH2 (lactam 2-7, also called peptide No. 96) [Ac-Arg-cyclo(Lys-His-D-Phe-Arg-Trp-Asp)-NH2] | 1

Further lines, results first:

Ki [nM] | Binder
3 | Ac-R[Orn][Dab][dF]RWE-NH2 (lactam 2-7, also called peptide No. 119) [Ac-Arg-cyclo(Orn-Dab-D-Phe-Arg-Trp-Glu)-NH2]
9 | Ac-RE[Orn][dF]RW[Orn]-NH2 (lactam 2-7, also called peptide No. 104) [Ac-Arg-cyclo(Glu-Orn-D-Phe-Arg-Trp-Orn)-NH2]
3 | Ac-K[Orn]H[dF]RWE-NH2 (lactam 2-7, also called peptide No. 132) [Ac-Lys-cyclo(Orn-His-D-Phe-Arg-Trp-Glu)-NH2]
12 | Ac-R[Orn]H[dF]RWE-OH (lactam 2-7, also called peptide No. 84) [Ac-Arg-cyclo(Orn-His-D-Phe-Arg-Trp-Glu)-OH]
6 | Ac-REH[dF]RW[Orn]-NHEt (lactam 2-7, also called peptide No. 109) [Ac-Arg-cyclo(Glu-His-D-Phe-Arg-Trp-Orn)-NH-Et]
35 | RDMFRWK (HELM PEPTIDE1{[ac].R.D.M.[dF].R.W.K.[am]}$PEPTIDE1,PEPTIDE1,3:R3-8:R3$$$V2.0; SMILES CSCC[C@@H]1NC(=O)[C@@H](NC(=O)[C@H](CCCNC(=N)N)NC(C)=O)CC(=O)NCCCC[C@@H](C(N)=O)NC(=O)[C@H](Cc2c[nH]c3ccccc23)NC(=O)[C@H](CCCNC(=N)N)NC(=O)[C@@H](Cc2ccccc2)NC1=O, also called peptide No. 38) [Ac-Arg-cyclo(Asp-Met-D-Phe-Arg-Trp-Lys)-NH2]
64 | Ac-RDQ[dF]RWK-NHcPr (lactam 2-7) [Ac-Arg-cyclo(Asp-Gln-D-Phe-Arg-Trp-Lys)-NH-cyclopropyl]
33 | RDLFRWK (HELM PEPTIDE1{[ac].R.D.L.[dF].R.W.K.[am]}$PEPTIDE1,PEPTIDE1,3:R3-8:R3$$$V2.0; SMILES CC(=O)N[C@@H](CCCNC(=N)N)C(=O)N[C@H]1CC(=O)NCCCC[C@@H](C(N)=O)NC(=O)[C@H](Cc2c[nH]c3ccccc23)NC(=O)[C@H](CCCNC(=N)N)NC(=O)[C@@H](Cc2ccccc2)NC(=O)[C@H](CC(C)C)NC1=O, also called peptide No. 12) [Ac-Arg-cyclo(Asp-Leu-D-Phe-Arg-Trp-Lys)-NH2]
19 | RDIFRWK (HELM PEPTIDE1{[ac].R.D.I.[dF].R.W.K.[am]}$PEPTIDE1,PEPTIDE1,3:R3-8:R3$$$V2.0; SMILES CC[C@H](C)[C@@H]1NC(=O)[C@@H](NC(=O)[C@H](CCCNC(=N)N)NC(C)=O)CC(=O)NCCCC[C@@H](C(N)=O)NC(=O)[C@H](Cc2c[nH]c3ccccc23)NC(=O)[C@H](CCCNC(=N)N)NC(=O)[C@@H](Cc2ccccc2)NC1=O, also called peptide No. 34) [Ac-Arg-cyclo(Asp-Ile-D-Phe-Arg-Trp-Lys)-NH2]
9 | KDHFRWK (HELM PEPTIDE1{[ac].K.D.H.[dF].R.W.K.[am]}$PEPTIDE1,PEPTIDE1,3:R3-8:R3$$$V2.0; SMILES CC(=O)N[C@@H](CCCCN)C(=O)N[C@H]1CC(=O)NCCCC[C@@H](C(N)=O)NC(=O)[C@H](Cc2c[nH]c3ccccc23)NC(=O)[C@H](CCCNC(=N)N)NC(=O)[C@@H](Cc2ccccc2)NC(=O)[C@H](Cc2c[nH]cn2)NC1=O, also called peptide No. 135) [Ac-Lys-cyclo(Asp-His-D-Phe-Arg-Trp-Lys)-NH2]
47 | RDHFRWK (HELM PEPTIDE1{[ac].R.D.H.[C[C@](Cc1ccccc1)(N[*:1])C(=O)[*:2]].R.W.K.[am]}$PEPTIDE1,PEPTIDE1,3:R3-8:R3$$$V2.0; SMILES CC(=O)N[C@@H](CCCNC(=N)N)C(=O)N[C@H]1CC(=O)NCCCC[C@@H](C(N)=O)NC(=O)[C@H](Cc2c[nH]c3ccccc23)NC(=O)[C@H](CCCNC(=N)N)NC(=O)[C@@](C)(Cc2ccccc2)NC(=O)[C@H](Cc2c[nH]cn2)NC1=O, also called peptide No. 60) [Ac-Arg-cyclo(Asp-His-D-(alpha-Me)Phe-Arg-Trp-Lys)-NH2]
8 | Ac-RD[Pro(4R-2-Cl-Bzl)][dF]RWK-NH2 (lactam 2-7, also called peptide No. 123) [Ac-Arg-cyclo(Asp-Pro(4R-2-Cl-Bzl)-D-Phe-Arg-Trp-Lys)-NH2]
40 | Ac-[dR]EH[dF]RW[Orn]-OH (lactam 2-7, also called peptide No. 85) [Ac-D-Arg-cyclo(Glu-His-D-Phe-Arg-Trp-Orn)-OH]

These binders were tested against human recombinant melanocortin-1 receptor (human, UniProt Q01726 1-317) (assay: cell-based or functional assay).
human recombinant melanocortin-1 receptor, sequence (Q01726 whole entry): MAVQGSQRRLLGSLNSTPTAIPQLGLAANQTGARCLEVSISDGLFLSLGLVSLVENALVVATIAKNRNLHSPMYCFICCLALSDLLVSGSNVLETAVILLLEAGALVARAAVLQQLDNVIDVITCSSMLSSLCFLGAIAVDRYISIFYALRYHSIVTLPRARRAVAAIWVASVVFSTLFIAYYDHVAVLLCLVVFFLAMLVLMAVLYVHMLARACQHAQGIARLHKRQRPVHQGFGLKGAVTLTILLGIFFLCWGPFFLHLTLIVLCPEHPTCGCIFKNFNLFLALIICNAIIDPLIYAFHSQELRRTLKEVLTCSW

hMC1-R Emax (%) | Binder
89 | Ac-R[Orn]Q[dF]RWE-NH2 (lactam 2-7) [Ac-Arg-cyclo(Orn-Gln-D-Phe-Arg-Trp-Glu)-NH2]
85 | Ac-[dR][Orn]Q[dF]RWE-NH2 (lactam 2-7) [Ac-D-Arg-cyclo(Orn-Gln-D-Phe-Arg-Trp-Glu)-NH2]

The binders below were run against T1, human recombinant melanocortin-4 … (assay: cell-based or functional assay).

hMC4-R Emax (%) | Binder
89 | Ac-[dR][Orn]Q[dF]RWE-NH2 (lactam 2-7) [Ac-D-Arg-cyclo(Orn-Gln-D-Phe-Arg-Trp-Glu)-NH2]
